Experimental data reported in patent KR20150077770A (dated 2015).

How the values were obtained:
[1] = target: T1, AIMP1 (Aminoacyl-tRNA-synthetase-interacting multifunctional protein 1), purified recombinant (UniProt Q12904 1-312, limits assumed); test: Luminex multiplex bead assay, anti-HA-biotin / SA-PE detection
T1 construct: also called AIMP1(p43); p43
T1 sequence (looked up): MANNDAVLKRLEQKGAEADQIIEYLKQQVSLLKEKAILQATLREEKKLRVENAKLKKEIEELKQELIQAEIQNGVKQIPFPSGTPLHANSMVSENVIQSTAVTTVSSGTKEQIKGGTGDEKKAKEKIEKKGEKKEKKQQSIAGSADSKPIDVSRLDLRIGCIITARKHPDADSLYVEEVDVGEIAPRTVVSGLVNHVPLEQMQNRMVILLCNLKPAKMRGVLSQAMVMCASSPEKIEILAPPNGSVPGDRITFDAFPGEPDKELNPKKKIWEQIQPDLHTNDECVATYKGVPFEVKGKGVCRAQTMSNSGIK

[2] = target: T2, WRS (Tryptophanyl-tRNA synthetase), purified recombinant (UniProt P23381 1-471, limits assumed); test: as above
T2 construct: also called 트립토파닐-tRNA 합성효소
T2 sequence (looked up): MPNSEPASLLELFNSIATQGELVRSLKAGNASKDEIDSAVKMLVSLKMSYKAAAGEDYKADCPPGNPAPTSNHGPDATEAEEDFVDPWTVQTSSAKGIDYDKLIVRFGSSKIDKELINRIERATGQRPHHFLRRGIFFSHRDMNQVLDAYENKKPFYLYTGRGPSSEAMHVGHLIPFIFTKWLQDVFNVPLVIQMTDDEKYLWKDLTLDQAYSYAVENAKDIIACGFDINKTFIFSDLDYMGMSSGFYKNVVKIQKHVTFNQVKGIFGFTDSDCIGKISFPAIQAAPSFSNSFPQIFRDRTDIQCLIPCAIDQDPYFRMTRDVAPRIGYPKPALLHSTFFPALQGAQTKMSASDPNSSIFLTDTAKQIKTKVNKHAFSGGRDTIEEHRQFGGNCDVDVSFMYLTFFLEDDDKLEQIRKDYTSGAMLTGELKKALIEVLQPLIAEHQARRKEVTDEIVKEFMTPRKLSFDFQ

[3] = target: T3, NRS (Asparaginyl-tRNA synthetase), purified recombinant (UniProt O43776 1-548, limits assumed); test: as above
T3 construct: also called 아스파라기닐딜-tRNA 합성효소
T3 sequence (looked up): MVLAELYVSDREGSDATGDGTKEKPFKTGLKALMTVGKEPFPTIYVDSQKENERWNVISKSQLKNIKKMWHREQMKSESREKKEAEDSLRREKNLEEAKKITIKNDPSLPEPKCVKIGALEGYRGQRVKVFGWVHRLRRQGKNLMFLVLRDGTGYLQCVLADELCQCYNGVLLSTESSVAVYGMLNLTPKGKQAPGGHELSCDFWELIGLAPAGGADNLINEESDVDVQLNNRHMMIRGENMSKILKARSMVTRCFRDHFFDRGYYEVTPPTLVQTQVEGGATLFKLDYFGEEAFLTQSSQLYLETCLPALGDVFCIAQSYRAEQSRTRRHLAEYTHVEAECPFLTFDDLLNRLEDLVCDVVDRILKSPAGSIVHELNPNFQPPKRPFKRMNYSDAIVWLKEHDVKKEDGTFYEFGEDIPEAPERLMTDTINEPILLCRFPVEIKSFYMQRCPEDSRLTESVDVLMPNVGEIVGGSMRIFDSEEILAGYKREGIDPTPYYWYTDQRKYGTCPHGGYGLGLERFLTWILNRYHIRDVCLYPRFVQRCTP

[4] = target: T4, KRS (Lysyl-tRNA synthetase), purified recombinant (UniProt Q15046 1-597, limits assumed); test: as above
T4 construct: also called 리실-tRNA 합성효소
T4 sequence (Q15046 whole entry): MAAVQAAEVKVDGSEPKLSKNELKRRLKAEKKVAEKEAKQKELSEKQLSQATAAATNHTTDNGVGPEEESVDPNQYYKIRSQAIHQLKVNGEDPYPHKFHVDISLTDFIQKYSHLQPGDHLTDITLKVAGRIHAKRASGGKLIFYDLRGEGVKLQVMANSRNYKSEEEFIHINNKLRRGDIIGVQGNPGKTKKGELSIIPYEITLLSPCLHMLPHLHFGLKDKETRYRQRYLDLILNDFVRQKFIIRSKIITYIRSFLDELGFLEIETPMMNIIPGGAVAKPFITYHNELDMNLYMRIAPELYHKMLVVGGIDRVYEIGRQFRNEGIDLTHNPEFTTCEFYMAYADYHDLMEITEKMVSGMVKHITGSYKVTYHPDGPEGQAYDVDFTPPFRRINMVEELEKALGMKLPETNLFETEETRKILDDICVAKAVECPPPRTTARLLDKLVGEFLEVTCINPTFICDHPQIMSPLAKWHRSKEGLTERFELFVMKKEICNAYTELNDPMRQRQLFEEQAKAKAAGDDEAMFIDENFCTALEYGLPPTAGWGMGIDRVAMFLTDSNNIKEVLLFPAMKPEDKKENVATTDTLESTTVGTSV

[5] = target: T5, SRS (Seryl-tRNA synthetase), purified recombinant (UniProt P49591 1-514, limits assumed); test: as above
T5 construct: also called 세릴-tRNA 합성효소
T5 sequence (P49591 whole entry): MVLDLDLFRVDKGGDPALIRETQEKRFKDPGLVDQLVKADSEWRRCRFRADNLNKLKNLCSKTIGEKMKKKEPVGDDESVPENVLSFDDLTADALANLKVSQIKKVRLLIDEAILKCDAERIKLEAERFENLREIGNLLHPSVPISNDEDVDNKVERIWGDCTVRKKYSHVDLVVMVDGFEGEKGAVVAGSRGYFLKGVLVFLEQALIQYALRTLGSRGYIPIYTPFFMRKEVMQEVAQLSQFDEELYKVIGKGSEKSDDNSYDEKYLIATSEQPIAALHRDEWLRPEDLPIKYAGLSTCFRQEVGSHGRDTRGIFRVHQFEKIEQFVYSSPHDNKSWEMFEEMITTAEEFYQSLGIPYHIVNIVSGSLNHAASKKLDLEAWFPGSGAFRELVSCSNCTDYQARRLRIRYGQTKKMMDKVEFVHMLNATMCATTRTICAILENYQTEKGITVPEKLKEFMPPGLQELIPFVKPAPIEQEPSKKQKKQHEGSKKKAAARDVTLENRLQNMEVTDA

[6] = target: T6, YRS (Tyrosyl-tRNA synthetase), purified recombinant (UniProt P54577 1-528, limits assumed); test: as above
T6 construct: also called 타이로실-tRNA 합성효소
T6 sequence (looked up): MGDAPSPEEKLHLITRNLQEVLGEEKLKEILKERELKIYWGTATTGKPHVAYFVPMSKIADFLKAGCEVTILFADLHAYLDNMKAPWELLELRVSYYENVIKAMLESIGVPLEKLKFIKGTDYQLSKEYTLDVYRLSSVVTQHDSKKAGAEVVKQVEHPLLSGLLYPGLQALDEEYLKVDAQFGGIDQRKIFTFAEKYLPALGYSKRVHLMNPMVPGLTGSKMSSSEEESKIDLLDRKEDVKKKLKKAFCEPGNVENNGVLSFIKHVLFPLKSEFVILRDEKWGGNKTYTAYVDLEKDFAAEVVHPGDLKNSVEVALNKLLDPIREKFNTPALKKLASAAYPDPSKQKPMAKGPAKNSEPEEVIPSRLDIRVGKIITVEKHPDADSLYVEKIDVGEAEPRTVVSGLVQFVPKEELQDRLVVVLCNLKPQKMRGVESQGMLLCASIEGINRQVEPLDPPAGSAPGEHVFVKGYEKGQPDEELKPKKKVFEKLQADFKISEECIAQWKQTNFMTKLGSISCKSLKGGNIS

[7] = target: T7, GRS (Glycyl-tRNA synthetase), purified recombinant (UniProt P41250 55-739, limits assumed); test: as above
T7 construct: also called 글리실-tRNA 합성효소
T7 sequence (looked up): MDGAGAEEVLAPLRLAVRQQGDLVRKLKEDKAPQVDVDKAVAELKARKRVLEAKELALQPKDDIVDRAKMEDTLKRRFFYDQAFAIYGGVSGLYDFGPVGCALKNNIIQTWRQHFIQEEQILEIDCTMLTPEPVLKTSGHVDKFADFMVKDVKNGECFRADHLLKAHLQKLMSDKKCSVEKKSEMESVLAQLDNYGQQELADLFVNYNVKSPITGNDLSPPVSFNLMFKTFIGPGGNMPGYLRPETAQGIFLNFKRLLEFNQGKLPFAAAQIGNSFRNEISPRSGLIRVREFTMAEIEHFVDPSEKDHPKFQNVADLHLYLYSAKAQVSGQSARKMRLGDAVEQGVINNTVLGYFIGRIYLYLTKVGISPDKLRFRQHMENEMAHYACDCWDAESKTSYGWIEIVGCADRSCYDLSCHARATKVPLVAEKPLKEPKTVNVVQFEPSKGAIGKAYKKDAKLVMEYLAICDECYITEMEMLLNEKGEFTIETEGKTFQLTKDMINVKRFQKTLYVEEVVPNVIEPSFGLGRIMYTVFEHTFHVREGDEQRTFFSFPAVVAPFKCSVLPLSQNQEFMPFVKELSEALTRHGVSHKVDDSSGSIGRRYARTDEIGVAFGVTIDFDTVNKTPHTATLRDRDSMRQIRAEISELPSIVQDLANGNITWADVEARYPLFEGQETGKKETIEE

[8] = target: T8, HRS (Histidyl-tRNA synthetase), purified recombinant antigen (human, UniProt P12081 1-509, limits assumed); test: SPR (ProteOn XPR36), HRS amine-coupled on GLC chip, purified scFv 500-30 nM injected, 25 C
T8 construct: It was immobilised on the GLC chip (SPR), coupled to Luminex beads and used as the ELISA standard; also called HRS 항원; 재조합 HRS 표준물질
T8 sequence (looked up): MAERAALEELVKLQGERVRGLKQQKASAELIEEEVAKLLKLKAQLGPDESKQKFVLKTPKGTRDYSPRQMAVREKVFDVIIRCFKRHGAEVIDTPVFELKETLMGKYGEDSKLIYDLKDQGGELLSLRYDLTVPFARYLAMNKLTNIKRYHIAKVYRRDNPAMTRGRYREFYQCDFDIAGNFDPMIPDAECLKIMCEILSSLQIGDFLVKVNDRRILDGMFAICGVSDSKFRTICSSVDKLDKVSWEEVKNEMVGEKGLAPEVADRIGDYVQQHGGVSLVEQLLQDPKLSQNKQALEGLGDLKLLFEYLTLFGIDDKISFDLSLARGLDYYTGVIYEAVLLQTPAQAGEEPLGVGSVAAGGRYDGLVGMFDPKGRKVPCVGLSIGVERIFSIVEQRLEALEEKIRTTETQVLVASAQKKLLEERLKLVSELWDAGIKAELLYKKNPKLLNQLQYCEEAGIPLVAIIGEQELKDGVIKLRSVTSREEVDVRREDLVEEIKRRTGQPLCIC

B1: anti-HRS scFv Biocon-H1 (scFv)
scFv: EVQLLESGGGLVQPGGSLRLSCAASGFTFSGYYMSWVRQAPGKGLEWVSLISHGGGNIYYADSVKGRFTISRDNSKNTLYLQMNSLRAEDTAVYYCARFPLEFDYWGQGTLVTVSSGGGGSGGGGSGGGGSQSVLTQPPSASGTPGQRVTISCTGSSSNIGSNAVSWYQQLPGTAPKLLIYDDNKRPSGVLDRFSGSKSGTSASLAISGLRSEDEADYYCGTWDDSLSGYVFGGGTKLTVL
notes: Single clone from a human VH3-23/VL1g phage scFv library, expressed in E. coli periplasm; Periplasmic extract was used in the western blot and Luminex assay, Ni-NTA-purified scFv in SPR and ELISA; also called 항 HRS scFv 항체; 본 발명의 항체; not shown: tags from the pComb3X vector (purified on Ni-NTA, detected with anti-HA)
[1]
  binding result: no binding
[2]
  binding result: no binding
[3]
  binding result: no binding
[4]
  binding result: no binding
[5]
  binding result: no binding
[6]
  binding result: no binding
[7]
  binding result: no binding
[8]
  Kd: 70 nM
